Test results published in publication PMC12350261.

Experiments:
[1] = target: human D-glucuronyl C5-epimerase Glce^167-617 (human); assay: dynamic light scattering; DynaPro NanoStar, room temperature, 2 uM Glce^167-617; hydrodynamic radius turned into an estimated molecular weight
[2] = target: human D-glucuronyl C5-epimerase Glce^167-617 (human); assay: SEC; Superdex 200 10/300 GL, 18 C, 20 mM Tris-HCl pH 8.0, 200 mM NaCl, 1 mM DTT, 100 ug loaded, calibrated with gel filtration standard; apparent molecular weight
[3] = target: human D-glucuronyl C5-epimerase Glce^167-617 (human); assay: crystal structure; apo Glce^167-617, sitting-drop vapour diffusion at 20 C, 0.2 M ammonium sulfate, 0.1 M Tris pH 8.5, 22% PEG 3,350; space group C 1 2 1, two molecules in the asymmetric unit; 2.88 A

Measured: stoichiometry N

human D-glucuronyl C5-epimerase Glce^167-617 (domain or fragment)
2: [1] | [2] | [3]
